Assay results: patent US20040266686A1 (Regeneron, published 2004)

Tests used:
human VEGF165 [1] = target: T1, human VEGF165 (human, UniProt P15692-4 27-191); experiment: cell-based or functional assay
human VEGF165 [2] = target: T1, human VEGF165; experiment: size exclusion chromatography with on-line light scattering
Description: (a) Size Exclusion Chromatography (SEC) with On-Line Light Scattering. Size exclusion chromatography column with a MiniDawn on-line light scattering detector (Wyatt Technology, Santa Barbara, Calif.) and refractive index (R1) detectors (Shimadzu, Kyoto, Japan) was used to determine the molecular weight (MW) of the receptor-ligand complex. Samples were injected onto a Superose 12 HR 10/30 column (Pharmacia) equilibrated in PBS buffer and eluted with the same buffer at flow rate 0.5 ml/min. at room temperature. […] MW was calculated from LS and R1 signals. The same procedure was used to determine MW of the individual components of the receptor-ligand complex.

human VEGF165 [3] = target: T1, human VEGF165; experiment: size exclusion chromatography under dissociative conditions (6M GuHCl), standard curves
Description: (a) Size Exclusion Chromatography (SEC) under native conditions. […] The sample was eluted with the same buffer at flow rate 40 μl/min. at room temperature. […] Fractions eluted between 1.1 and 1.2 ml were combined and guanidinium hydrochloride (GuHCl) was added to a final concentration 4.5M to dissociate the complex.
(b) Size Exclusion Chromatography (SEC) under dissociative conditions. To separate the components of the receptor-ligand complex and to determine their molar ratio, 50 μl of dissociated complex as described supra was loaded onto a Superose 12 PC 3.2/30 equilibrated in 6M GuHCl and eluted with the same solution at a flow rate 40 μl/min. at room temperature.
The stoichiometry of the receptor-ligand complex was determined from the peak area or the peak height of the components. […] To obtain a standard curve, four different concentrations (0.04 mg/ml−0.3 mg/ml) of either component were injected onto a Pharmacia Superose 12 PC 3.2/30 column equilibrated in 6M guanidinium chloride and eluted with the same solution at flow rate 40 μl/min. at room temperature. The standard curve was obtained by plotting peak area or peak height vs protein concentration.

human VEGF165 [4] = target: T1, human VEGF165; experiment: size exclusion chromatography (Superose 6), complex purified, dissociated in 6M guanidine hydrochloride, components quantified
Description: (b) Size Exclusion Chromatography. […] The receptor-ligand complex was then incubated in a buffer containing 6M guanidine hydrochloride in order to dissociate it into its component proteins.

T1 sequence (P15692 other isoform, or with tags, fused parts or gaps limits assumed): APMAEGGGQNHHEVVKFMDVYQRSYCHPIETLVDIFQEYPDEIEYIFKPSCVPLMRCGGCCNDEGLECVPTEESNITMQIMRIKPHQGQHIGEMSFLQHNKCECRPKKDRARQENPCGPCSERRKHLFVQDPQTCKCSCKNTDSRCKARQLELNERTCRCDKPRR

half maximal dose, VEGF165-induced cell proliferation (MG87 cells, MTS) (human VEGF165 [1]) [nM]	stoichiometry of the complex (human VEGF165 [2])	molar ratio of VEGF165:receptor (from the peak area) (human VEGF165 [3]) [mol/mol]	molar ratio of VEGF165:receptor (from the peak height) (human VEGF165 [3]) [mol/mol]	ratio of VEGF165 to receptor in the complex (human VEGF165 [4])	Binder
0.8	1 receptor:VEGF165	1.16	1.1	1 VEGF165:receptor	Flt1D2.Flk1D3.Fc?C1(a) (Fc fusion, human, N-linked glycosylation: complete at Asn33, Asn193, Asn282; partial at Asn65 and Asn120 (peptide mapping numbering), domain: Ig domain 2;domain: Ig domain 3; Made in CHO cells, transiently or stably; also called R1R2; not shown: Fc?C1(a) portion) GRPFVEMYSEIPEIIHMTEGRELVIPCRVTSPNITVTLKKFPLDTLIPDGKRIIWDSRKGFIISNATYKEIGLLTCEATVNGHLYKTNYLTHRQTNTIIDVVLSPSHGIELSVGEKLVLNCTARTELNVGIDFNWEYPSSKHQHKKLVNRDLKTQSGSEMKKFLSTLTIDGVTRSDQGLYTCAASSGLMTKKNSTFVRVHEKGPG
2					Flt1D2.VEGFR3D3.Fc?C1(a) (Fc fusion, not shown: a dimerising Fc or GST) GRPFVEMYSEIPEIIHMTEGRELVIPCRVTSPNITVTLKKFPLDTLIPDGKRIIWDSRKGFIISNATYKEIGLLTCEATVNGHLYKTNYLTHRQTNTIIDIQLLPRKSLELLVGEKLVLNCTVWAEFNSGVTFDWDYPGKQAERGKWVPERRSQQTHTELSSILTIHNVSQHDLGSYVCKANNGIQRFRESTEVIVHENGPG
2					Flt1(1-3)-Fc (Fc fusion, human, UniProt P17948 27-331, looked up, not shown: a dimerising Fc or GST) SKLKDPELSLKGTQHIMQAGQTLHLQCRGEAAHKWSLPEMVSKESERLSITKSACGRNGKQFCSTLTLNTAQANHTGFYSCKYLAVPTSKKKETESAIYIFISDTGRPFVEMYSEIPEIIHMTEGRELVIPCRVTSPNITVTLKKFPLDTLIPDGKRIIWDSRKGFIISNATYKEIGLLTCEATVNGHLYKTNYLTHRQTNTIIDVQISTPRPVKLLRGHTLVLNCTATTPLNTRVQMTWSYPDEKNKRASVRRRIDQSNSHANIFYSVLTIDKMQNKDKGLYTCRVRSGPSFKSVNTSVHIYDK
